Patent US10662235B2, “Cysteine engineered fibronectin type III domain binding molecules” (Janssen Biotech, Inc., priority 2016, dated 2020)
“Also recorded” adds a separate entry of the source.

Key:
[1] = system: H292-HGF human lung cancer xenograft; test: Efficacy of bispecific molecule and other inhibitors in H292-HGF xenograft model (tumor volume, T/C, T-C); type: in vivo, SCID/Beige mice; conditions: for antitumor activity: H292-HGF xenograft
Procedure: The H292-HGF cells were maintained in vitro in RPMI1640 medium supplemented with fetal bovine serum (10% v/v), and L-glutamine (2 mM) at 37° C. in an atmosphere of 5% CO2 in air. The cells were routinely subcultured twice weekly by trypsin-EDTA treatment. The cells growing in an exponential growth phase were harvested and counted for tumor inoculation.
Each mouse was inoculated subcutaneously at the right flank region with H292-HGF tumor cells (2×10^6) in 0.1 ml of PBS with cultrex (1:1) for tumor development. The treatments were started when the mean tumor size reached 139 mm^3. […] The date of tumor cell inoculation was denoted as day 0.
Before commencement of treatment, all animals were weighed and the tumor volumes were measured. Since the tumor volume can affect the effectiveness of any given treatment, mice were assigned into groups using randomized block design based upon their tumor volumes. […] The randomized block design was used to assign experimental animals to groups. First, the experimental animals were divided into homogeneous blocks according to their initial tumor volume. Secondly, within each block, randomization of experimental animals to treatments was conducted.
The major endpoint was whether tumor growth can be delayed or tumor bearing mice can be cured. Tumor size was measured twice weekly in two dimensions using a caliper, and the volume was expressed in mm^3 using the formula: V=0.5a×b^2 where a and b are the long and short diameters of the tumor, respectively. The tumor size was then used for calculations of both T-C and T/C values. T-C was calculated with T as the time (in days) required for the mean tumor size of the treatment group to reach 1000 mm^3, and C was the time (in days) for the mean tumor size of the control group to reach the same size. The T/C value (in percent) was an indication of antitumor efficacy; T and C were the mean volume of the treated and control groups, respectively, on a given day. Complete tumor regression (CR) is defined as tumors that are reduced to below the limit of palpation (62.5 mm^3). Partial tumor regression (PR) is defined as tumors that are reduced from initial tumor volume. A minimum duration of CR or PR in 3 or more successive tumor measurements is required for a CP or PR to be considered durable.
Statistical analyses of difference in tumor volume among the groups were evaluated using a one-way ANOVA followed by individual comparisons using Games-Howell (equal variance not assumed). All data were analyzed using SPSS 18.0. p<0.05 was considered to be statistically significant.

[2] = Body weight loss / tolerability in H292-HGF xenograft study; conditions: treatment and 2 weeks observation
Procedure: At the time of routine monitoring, the animals were checked for any effects of tumor growth and treatments on normal behavior, such as mobility, visual estimation of food and water consumption, body weight gain/loss (body weights were measured twice weekly), eye/hair matting and any other abnormal effect.
Animals for which the body weight loss exceeded 20%, or for which the mean tumor size of the group exceeds 2000 mm^3 were euthanized. The study was terminated after two weeks of observation after the final dose.

[3] = Thermal stability by differential scanning calorimetry; type: physicochemical; conditions: cysteine-NEM conjugates
Procedure: The thermal stability of cysteine-NEM conjugates was assessed by differential scanning calorimetry (DSC). The only the conjugates tested were those determined to express at high levels, conjugate efficiently, and retain EGFR binding. Additionally, cysteine variants within the BC and FG loops were excluded. Stability data was generated by heating a 400 μL aliquot of the variant from 25° C. to 100° C. at a scan rate of 1° C. per minute in a VP-DSC instrument (MicroCal). A second identical scan was completed on the sample in order to assess the reversibility of thermal folding/unfolding. Data was fitted to a 2-state unfolding model in order to calculate the melting temperature (Table 10).
Thermal Stability of c-Met-Binding FN3 Domains Differential scanning calorimetry in PBS was used to assess the stability of each FN3 domain.

[4] = Analytical size exclusion chromatography (aggregation state, percent monomer); type: physicochemical; conditions: NEM-conjugated cysteine variants; SEC, Abs280
Procedure: Size exclusion chromatography was used to determine the aggregation state of the FN3 domains binding EGFR. Aliquots (10 μL) of each purified FN3 domain were injected onto a Superdex 75 5/150 column (GE Healthcare) at a flow rate of 0.3 mL/min in a mobile phase of PBS pH 7.4. Elution from the column was monitored by absorbance at 280 nm.
The percent monomer for each protein was determined by integrating the Abs280 signal and comparing the peak in the monomer region (5.5-6 minutes) to the peaks in the oligomer region (4-5.3 minutes).

EGFR = EGFR (Homo sapiens, UniProt P00533); test: EGFR binding assay (ELISA) of NEM-conjugated cysteine variants relative to parent
EGFR in NCI-H292 cells = molecular target: T1, EGFR in NCI-H292 cells (Homo sapiens, UniProt P00533); test: Inhibition of EGFR phosphorylation in NCI-H292 cells; type: cell-based; conditions: H292 cells (FIG. 7A)
T1 construct: EGF-stimulated phosphorylation of EGFR in the human tumor cell line NCI-H292; host or cells: NCI-H292
Procedure: Purified EGFR-binding FN3 domains were tested for their ability to inhibit EGF-stimulated phosphorylation of EGFR in A431 cells at a single concentration. EGFR phosphorylation was monitored using the EGFR phospho(Tyr1173) kit (Meso Scale Discovery). Cells were plated at 20,000/well in clear 96-well tissue culture-treated plates (Nunc) in 100 μL/well of RPMI medium (Gibco) containing GlutaMAX™ with 10% fetal bovine serum (FBS) (Gibco) and allowed to attach overnight at 37° C. in a humidified 5% CO2 atmosphere. Culture medium was removed completely and cells were starved overnight in 100 μL/well of medium containing no FBS at 37° C. in a humidified 5% CO2 atmosphere. […] Signals were detected by addition of 150 μL/well of Read Buffer (Meso Scale Discovery) and reading on a SECTOR® Imager 6000 instrument (Meso Scale Discovery) using manufacturer-installed assay-specific default settings. Percent inhibition of the EGF-stimulated positive control signal was calculated for each EGFR-binding FN3 domain.
NCI-H292, NCI-H441, or NCI-H596 cells were plated in 96 well plates in RPMI medium containing 10% FBS. […] Cells were lysed with MSD Lysis Buffer and cell signaling was assessed using appropriate MSD Assay plates, according to manufacturer's instructions, as described above. […]

EGFR in NCI-H596 cells = molecular target: T2, EGFR in NCI-H596 cells (Homo sapiens, UniProt P00533); test: Inhibition of EGFR phosphorylation in NCI-H596 cells; type: cell-based; conditions: H596 cells (FIG. 7B)
T2 construct: endogenous in cells; host or cells: NCI-H596
Procedure: NCI-H292, NCI-H441, or NCI-H596 cells were plated in 96 well plates in RPMI medium containing 10% FBS. 24 hours later, medium was replaced with serum free RPMI. […] Cells were treated for 1 h with the monospecific or bispecific molecules and then stimulated with EGF, HGF, or a combination of EGF and HGF for 15 minutes at 37° C., 5% CO2. Cells were lysed with MSD Lysis Buffer and cell signaling was assessed using appropriate MSD Assay plates, according to manufacturer's instructions, as described above.

MDA-MB-435 cells = test: Cytotoxicity assay of cytotoxin conjugates in EGFR-negative MDA-MB-435 cells; type: cell-based, human; conditions: EGFR-negative cell line; CellTiter Glo or IncuCyte object count at 66, 72 or 90 hour
Procedure: Cell killing was assessed by measuring viability of the EGFR-overexpressing human tumor cell line H1573 following exposure to the cysteine variant-cytotoxin conjugates. Cells were plated in black-well, clear bottomed, tissue culture-treated plates (Falcon 353219) at 7000/well in 100 μL/well of phenol red free RPMI media (Gibco 11835-030) with 5% fetal bovine serum (Gibco). Cells were allowed to attach overnight at 37° C. in a humidified 5% CO2 atmosphere. Medium was aspirated from 96-well plate and cells were treated with 50 uL of fresh media and 50 uL of 2× inhibitor made up in fresh media. Cell viability was determined by an endpoint assay with Cell TiterGlo (Promega) at 70 hours. IC50 values were determined by fitting data to the equation for a sigmoidal dose response with variable slope using GraphPad Prism 5 (GraphPad Software). Table 11 reports IC50 values obtained from analysis of the CellTiter Glo data.
Conjugates consisting of ECB147 cysteine variants, 83v2-cys, or Tencon-cys linked to a cytotoxic tubulin inhibitor from the auristatin family (FIG. 2) were tested for target-dependent cytotoxicity in cancer cells. […] Cell killing was assessed by measuring viability of the EGFR-overexpressing human tumor cell lines H1573 and A431 as well as the EGFR-negative tumor cell line MDA-MB-435 following exposure to the protein-cytotoxin conjugates using the procedure described in Example 4.

[5] = system: H292-HGF tumor xenografts; test: Tumor efficacy study with bispecific EGFR/c-Met molecules (tumor growth inhibition); type: in vivo, SCID Beige mice; conditions: 25 mg/kg three times per week (FIG. 10)
Procedure: One week after implantation, mice were stratified into groups with equivalent tumor volumes (mean tumor volume=77.9+/−1.7 mm^3). Mice were dosed three times per week with the bispecific molecules and tumor volumes were recorded twice weekly.

With C[C@@H](Oc1cc(-c2cnn(C3CCNCC3)c2)cnc1N)c1c(Cl)ccc(F)c1Cl [Crizotinib] the antitumor activity [1] was “no antitumor activity”, the T/C value ([1]; day 23) was 120% and the “toxicity / body weight loss / tolerability” value [2] was “More severe body weight loss”.

With C#Cc1cccc(Nc2ncnc3cc(OCCOC)c(OCCOC)cc23)c1 [Erlotinib] the “toxicity / body weight loss / tolerability” value [2] was “More severe body weight loss”.

B1: T68C (protein)
chain 1: MLPAPKCLVVSEVTEDSARLSWDDPWAFYESFLIQYQESEKVGEAIVLTVPGSERSYDLTGLKPGTEYTVSIYGVHNVYKDTNMRGLPLSAIFTT
chain 2: LPAPKCLVVSEVTEDSARLSWDDPWAFYESFLIQYQESEKVGEAIVLTVPGSERSYDLTGLKPGTEYTVSIYGVHNVYKDTNMRGLPLSAIFTT
modifications: EGFR binding FN3 domain; EGFR-binding FN3 domain
With B1 the “First Scan Tm” value ([3]; DSC 25-100° C., 1° C. per minute) was 72 °C, the “Second Scan Tm” value ([3]; second identical scan) was 72 °C and the Percent monomer [4] was 100%. The “EGFR binding relative to P54AR4-83v2 parent, 10 nM variant in assay” value (EGFR; 10 nM) was 0.83, the “EGFR binding relative to P54AR4-83v2 parent, 100 nM variant in assay” value (EGFR; 100 nM) was 1.04 and the “EGFR binding relative to P54AR4-83v2 parent, 500 nM variant in assay” value (EGFR; 500 nM) was 0.95.

B2: ECB5: bispecific P53A1R5-17v2 / P114AR7P94-A3, (GGGGS)4, SEQ ID 54 (protein)
chain: MLPAPKNLVVSEVTEDSARLSWADPHGFYDSFLIQYQESEKVGEAIVLTVPGSERSYDLTGLKPGTEYTVSIYGVHNVYKDTNMRGLPLSAIFTTGGGGSGGGGSGGGGSGGGGSMLPAPKNLVVSRVTEDSARLSWTAPDAAFDSFWIRYFEFLGSGEAIVLTVPGSERSYDLTGLKPGTEYVVNIMGVKGGKISPPLSAIFTT
modifications: bispecific EGFR/cMet binding molecule
In the case of B2, the “inhibition of phosphorylation of EGFR, bispecific vs monospecific” value (EGFR in NCI-H292 cells) is reported as “comparable” and the “inhibition of phosphorylation of EGFR, bispecific vs monospecific” value (EGFR in NCI-H596 cells) is reported as “comparable”.

B3: 83v2cy5-mal-PEG4-VC-MMAE (conjugate)
chain: MLPAPKNLVVSEVTEDSARLSWDDPWAFYESFLIQYQESEKVGEAIVLTVPGSERSYDLTGLKPGTEYTVSIYGVHNVYKDTNMRGLPLSAIFTTGGHHHHHHC
With B3 the IC50 (MDA-MB-435 cells) was 512 nM.

B4: 83v2cy5-mal-PEG4-VK-MMAE (conjugate)
chain: MLPAPKNLVVSEVTEDSARLSWDDPWAFYESFLIQYQESEKVGEAIVLTVPGSERSYDLTGLKPGTEYTVSIYGVHNVYKDTNMRGLPLSAIFTTGGHHHHHHC
In the case of B4, the IC50 (MDA-MB-435 cells) is reported as 62 nM.

B5: ECB38: bispecific P54AR4-83v2 / P114AR7P94-A3 linked to albumin binding domain, SEQ ID 120 (protein)
chain: MLPAPKNLVVSEVTEDSARLSWDDPWAFYESFLIQYQESEKVGEAIVLTVPGSERSYDLTGLKPGTEYTVSIYGVHNVYKDTNMRGLPLSAIFTTAPAPAPAPAPLPAPKNLVVSRVTEDSARLSWTAPDAAFDSFWIRYFEFLGSGEAIVLTVPGSERSYDLTGLKPGTEYVVNIMGVKGGKISPPLSAIFTTAPAPAPAPAPLAEAKVLANRELDKYGVSDYYKNLINNAKTVEGVKALLDEILAALP
modifications: Bispecific EGFR/c-Met binding molecule
With B5 the “tumor growth inhibition (TGI)” value [5] was “showed the most efficacy”, the antitumor activity [1] was “complete tumor regression (CR) in all mice; also recorded: complete response” and the “toxicity / body weight loss / tolerability” value [2] was “Slight toxicity; also recorded: tolerated in 7 out of 10 mice”.

B6: ECB39: bispecific P53A1R5-17v2 / P114AR7P94-A3 linked to albumin binding domain, SEQ ID 121 (protein)
chain: MLPAPKNLVVSEVTEDSARLSWADPHGFYDSFLIQYQESEKVGEAIVLTVPGSERSYDLTGLKPGTEYTVSIYGVHNVYKDTNMRGLPLSAIFTTAPAPAPAPAPLPAPKNLVVSRVTEDSARLSWTAPDAAFDSFWIRYFEFLGSGEAIVLTVPGSERSYDLTGLKPGTEYVVNIMGVKGGKISPPLSAIFTTAPAPAPAPAPLAEAKVLANRELDKYGVSDYYKNLINNAKTVEGVKALLDEILAALP
modifications: Bispecific EGFR/c-Met binding molecule
For B6, the “tumor growth inhibition (TGI)” value [5] was “showed the most efficacy”.
